Results from patent US7208581 (BURNHAM INSTITUTE FOR MEDICAL RESEARCH, dated 2007).

T1: hTRAF 2 (complete open reading frame, in vitro translated from pcDNA3-HA-TRAF2) (human, UniProt Q12933 2-501, 35S-methionine labelled)
T1 construct: mature; also called human TRAF 2; not shown: HA tag of the pcDNA3-HA vector
T1 sequence (looked up): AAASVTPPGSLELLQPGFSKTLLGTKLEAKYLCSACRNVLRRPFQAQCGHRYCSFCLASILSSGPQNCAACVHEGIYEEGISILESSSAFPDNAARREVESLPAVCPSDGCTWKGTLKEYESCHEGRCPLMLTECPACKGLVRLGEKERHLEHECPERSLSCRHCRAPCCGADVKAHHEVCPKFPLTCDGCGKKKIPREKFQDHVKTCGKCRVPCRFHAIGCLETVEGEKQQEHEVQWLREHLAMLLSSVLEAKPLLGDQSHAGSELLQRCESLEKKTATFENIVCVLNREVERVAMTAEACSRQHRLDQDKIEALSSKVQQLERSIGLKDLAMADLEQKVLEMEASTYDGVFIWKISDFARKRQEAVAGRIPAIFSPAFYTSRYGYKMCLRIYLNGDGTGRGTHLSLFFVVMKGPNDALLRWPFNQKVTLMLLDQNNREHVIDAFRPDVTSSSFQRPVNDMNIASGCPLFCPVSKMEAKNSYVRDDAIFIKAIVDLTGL

T2: hTRAF4 (complete open reading frame, in vitro translated from pcDNA3-HA-TRAF4) (human, UniProt Q9BUZ4 1-470, 35S-methionine labelled)
T2 construct: mature; also called human TRAF 4; not shown: HA tag of the pcDNA3-HA vector
T2 sequence (looked up): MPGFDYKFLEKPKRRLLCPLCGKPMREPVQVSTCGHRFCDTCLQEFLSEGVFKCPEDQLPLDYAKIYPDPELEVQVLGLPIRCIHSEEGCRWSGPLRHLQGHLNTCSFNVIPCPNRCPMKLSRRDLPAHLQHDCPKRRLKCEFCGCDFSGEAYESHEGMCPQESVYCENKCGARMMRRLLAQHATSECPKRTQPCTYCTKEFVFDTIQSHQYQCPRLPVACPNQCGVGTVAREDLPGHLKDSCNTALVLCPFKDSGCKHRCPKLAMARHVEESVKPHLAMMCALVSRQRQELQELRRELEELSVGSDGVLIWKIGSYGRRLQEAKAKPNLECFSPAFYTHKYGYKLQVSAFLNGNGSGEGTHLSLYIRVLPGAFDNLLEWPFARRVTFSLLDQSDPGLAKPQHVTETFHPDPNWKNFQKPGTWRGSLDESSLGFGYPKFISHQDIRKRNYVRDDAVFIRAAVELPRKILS

T3: full-length I-TRAF (in vitro translated) (UniProt Q92844 1-425, limits assumed, 35S-methionine labelled)
T3 construct: mature
T3 sequence (looked up): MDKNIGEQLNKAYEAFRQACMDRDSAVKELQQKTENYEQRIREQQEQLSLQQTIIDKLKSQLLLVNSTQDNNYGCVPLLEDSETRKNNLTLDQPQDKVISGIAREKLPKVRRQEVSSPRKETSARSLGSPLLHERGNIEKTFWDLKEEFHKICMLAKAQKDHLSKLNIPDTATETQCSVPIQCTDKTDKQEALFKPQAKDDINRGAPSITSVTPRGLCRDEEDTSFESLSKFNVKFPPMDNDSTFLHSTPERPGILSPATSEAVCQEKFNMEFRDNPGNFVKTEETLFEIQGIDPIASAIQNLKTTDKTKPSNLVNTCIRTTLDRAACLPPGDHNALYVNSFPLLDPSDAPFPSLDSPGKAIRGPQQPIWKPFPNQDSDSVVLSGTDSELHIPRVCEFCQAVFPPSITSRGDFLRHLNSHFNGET

B1: GST-DR4(ct) (receptor, UniProt O00220 263-468, looked up)
chain: CIGSGCGGDPKCMDRVCFWRLGLLRGPGAEDNAHNEILSNADSLSTFVSEQQMESQEPADLTGVTVQSPGEAQCLLGPAEAEGSQRRRLLVPANGADPTETLMLFFDKFANIVPFDSWDQLMRQLDLTKNEIDVVRAGTAGPGDALYAMLMKWVNKTGRNASIHTLLDALERMEERHAREKIQDLLVDSGKFIYLEDGTGSAVSLE
notes: domain: cytosolic domain; not shown: glutathione S-transferase tag of plasmid pGEX-DR4(ct)
B2: TRAF7 (282-435), not GST-fused (pcDNA3-myc-TRAF7 (282-435)) (other)
chain: FTSELVPSYDSATFVLENFSTLRQRADPVYSPPLQVSGLCWRLKVYPDGNGVVRGYYLSVFLELSAGLPETSKYEYRVEMVHQSCNDPTKNIIREFASDFEVGECWGYNRFFRLDLLANEGYLNPQNDTVILRFQVRSPTFFQKSRDQHWYIT
notes: transfected in the reporter assay; also called in vitro translated TRAF7 (282-435); TRAF domain of TRAF7; not shown: myc tag of the pcDNA3-myc vector
B3: GST-LTβR(ct) (receptor, UniProt P36941 249-435, looked up)
chain: KSHPSLCRKLGSLLKRRPQGEGPNPVAGSWEPPKAHPYFPDLVQPLLPISGDVSPVSTGLPAAPVLEAGVPQQQSPLDLTREPQLEPGEQSQVAHGTNGIHVTGGSMTITGNIYIYNGPVLGGPPGPGDLPATPEPPYPIPEEGDPGPPGLSTPHQEDGKAWHLAETEHCGATPSNRGPRNQFITHD
notes: domain: cytosolic domain; also called lymphotoxin-β receptor; not shown: glutathione S-transferase tag of plasmid pGEX-LTβR(ct)
B4: GST-SPOP (1-180) (other)
chain: MSRVPSPPPPAEMSSGPVAESWCYTQIKVVKFSYMWTINNFSFCREEMGEVIKSSTFSSGANDKLKWCLRVNPKGLDEESKDYLSLYLLLVSCPKSEVRAKFKFSILNAKGEETKAMESQRAYRFVQGKDWGFKKFIRRDFLLDEANGLLPDDKLTLFCEVSVVQDSVNISGQNTMNMVK
notes: Bacterial GST fusion purified on glutathione-Sepharose. cDNA amplified from Jurkat cells; also called GST-SPOP fusion protein; GST-fused TPBD of SPOP; not shown: glutathione S-transferase tag encoded by the pGEX4T vector (Pharmacia)
B5: SPOP (1-180), not GST-fused (pcDNA3-myc-SPOP (1-180)) (other)
chain: MSRVPSPPPPAEMSSGPVAESWCYTQIKVVKFSYMWTINNFSFCREEMGEVIKSSTFSSGANDKLKWCLRVNPKGLDEESKDYLSLYLLLVSCPKSEVRAKFKFSILNAKGEETKAMESQRAYRFVQGKDWGFKKFIRRDFLLDEANGLLPDDKLTLFCEVSVVQDSVNISGQNTMNMVK
notes: also called in vitro translated SPOP (1-180); TPBD of SPOP; not shown: myc tag of the pcDNA3-myc vector

Legend:
GST-HAUSP (1-213) = biological target: T4, GST-HAUSP (1-213) (human, UniProt Q93009 1-213); test: GST pull-down, 35S in vitro translated protein, SDS-PAGE and fluorography
T4 construct: Bacterial GST fusion purified on glutathione-Sepharose. cDNA amplified from Jurkat cells; also called GST-fused TPBD of HAUSP; HAUSP TPBD; not shown: glutathione S-transferase tag encoded by the pGEX4T vector (Pharmacia)
T4 sequence (Q93009 1-213): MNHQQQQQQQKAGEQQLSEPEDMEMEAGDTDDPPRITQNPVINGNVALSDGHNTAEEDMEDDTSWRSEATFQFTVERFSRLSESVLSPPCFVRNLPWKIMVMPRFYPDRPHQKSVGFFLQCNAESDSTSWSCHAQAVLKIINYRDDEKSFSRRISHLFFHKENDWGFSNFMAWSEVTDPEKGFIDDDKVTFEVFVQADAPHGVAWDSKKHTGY

GST-SPOP (1-180) = biological target: B4; test: as above
[1] = biological target: B2; test: GST pull-down from 293T cell lysate, anti-Myc immunoblot
Experimental: Bound TRAF proteins were detected by SDS-PAGE and fluorography.
Equal volumes of the in vitro translation mixtures (10 μl) were incubated with GST-fusion proteins containing the cytosolic domains of different members of the TNF-R family (1 μg)(FAS, TNF-R2, CD40, LTβR, NGFRp75, and DR4) immobilized on glutathione-Sepharose. […] Control GST and other GST control proteins were included in all assays After washing, bound proteins were analyzed by SDS-PAGE followed by fluorography for binding assays using in vitro translated proteins. […] Bound proteins were then detected by standard chemiluminescence assay (ECL; Amersham; Piscataway N.J.).

[2] = biological target: T1, hTRAF 2 (complete open reading frame, …); test: GST pull-down, 35S in vitro translated protein, SDS-PAGE and fluorography
GST-LTβR(ct) = biological target: B3; test: as above
[3] = biological target: B5; test: as above
GST-DR4(ct) = biological target: B1; test: as above
[4] = biological target: T2, hTRAF4 (complete open reading frame, in …); test: as above
[5] = biological target: T3, full-length I-TRAF (in vitro translated); test: as above
[6] = biological target: T5, hTRAF5 (complete open reading frame, in vitro translated from pcDNA3-Flag-TRAF5) (human, UniProt O00463 1-557, 35S-methionine labelled); test: as above
T5 construct: mature; also called human TRAF 5; not shown: Flag tag of the pcDNA3-Flag vector
T5 sequence (O00463 whole entry): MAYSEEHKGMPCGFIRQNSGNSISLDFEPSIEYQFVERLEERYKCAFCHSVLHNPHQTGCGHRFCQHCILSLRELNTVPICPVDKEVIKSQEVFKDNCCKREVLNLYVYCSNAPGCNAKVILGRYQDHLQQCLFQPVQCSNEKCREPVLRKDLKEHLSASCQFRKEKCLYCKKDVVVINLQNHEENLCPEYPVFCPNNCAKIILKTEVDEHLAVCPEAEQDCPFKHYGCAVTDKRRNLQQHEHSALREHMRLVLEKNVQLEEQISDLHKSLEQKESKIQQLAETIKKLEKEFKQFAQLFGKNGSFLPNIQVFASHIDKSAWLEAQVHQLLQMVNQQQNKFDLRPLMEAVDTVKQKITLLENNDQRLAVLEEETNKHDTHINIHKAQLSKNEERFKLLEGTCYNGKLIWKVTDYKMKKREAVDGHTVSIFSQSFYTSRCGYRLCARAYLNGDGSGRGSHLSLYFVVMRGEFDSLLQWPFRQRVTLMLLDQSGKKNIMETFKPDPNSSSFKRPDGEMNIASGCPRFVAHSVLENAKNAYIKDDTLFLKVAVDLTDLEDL

Row | Binder | binding result (GST-HAUSP (1-213)) | binding result (GST-SPOP (1-180)) | further results
1 | B1 | no binding | – | –
2 | GST-CD40(ct) (receptor, UniProt P25942 216-277, looked up, domain: cytosolic domain; not shown: glutathione S-transferase tag of plasmid pGEX-CD40(ct)) KKVAKKPTNKAPHPKQEPQEINFPDDLPGSNTAAPVQETLHGCQPVTQEDGKESRISVQERQ | no binding | no binding | –
3 | B2 | no binding | no binding | –
4 | GST-Fas(ct) (receptor, UniProt P25445 191-335, looked up, domain: cytosolic domain; not shown: glutathione S-transferase tag of plasmid pGEX-Fas(ct)) KRKEVQKTCRKHRKENQGSHESPTLNPETVAINLSDVDLSKYITTIAGVMTLSQVKGFVRKNGVNEAKIDEIKNDNVQDTAEQKVQLLRNWHQLHGKKEAYDTLIKDLKKANLCTLAEKIQTIILKDITSDSENSNFRNEIQSLV | no binding | no binding | –
5 | GST-TNF-R2(ct) (receptor, UniProt P20333 288-461, looked up, domain: cytosolic domain; Plasmid provided by Dr. C; Ware; also called TNF-receptor 2; not shown: glutathione S-transferase tag of plasmid pGEX-TNF-R2(ct)) KKKPLCLQREAKVPHLPADKARGTQGPEQQHLLITAPSSSSSSLESSASALDRRAPTRNQPQAPGVEASGAGEARASTGSSDSSPGGHGTQVNVTCIVNVCSSSDHSSQCSSQASSTMGDTDSSPSESPKDEQVPFSKEECAFRSQLETPETLLGSTEEKPLPLGVPDAGMKPS | no binding | – | –
6 | GST-fusion protein containing the cytosolic domain of HVEM (receptor, UniProt Q92956 224-283, looked up, domain: cytosolic domain; Only named in the 293T lysate experiment; not shown: glutathione S-transferase tag) CVKRRKPRGDVVKVIVSVQRKRQEAEGEATVIEALQAPPDVTTVAVEETIPSFTGRSPNH | – | – | binding result [1]: no binding
7 | B3 | no binding | – | –
8 | B4 | – | – | binding result [2]: no binding; binding result (GST-LTβR(ct)): no binding; binding result [3]: no binding; binding result (GST-DR4(ct)): no binding; binding result [4]: no binding; binding result [5]: no binding; binding result [6]: no binding
9 | B5 | no binding | – | –
